# Test results as given in the RNAGym collection of RNA variant scans (doi:10.7554/elife.90254).
# B1: LINE1-mini (parent)
# chain: GGCAGAGCUCAACACAGCGUGGCAAAGUGGCUGUGGCUAGACUGCC
# Variants of: B1
# Assay: self-cleavage, relative activity (ratio to wild type); higher = more cleavage; in vitro, sequencing; the parent is a self-cleaving ribozyme
row,Variant,self-cleavage
1,GGCAGAGCUCACCACAGCGUGGCAAAAUGGCUGUGGCUAGACUGCC,0.03
2,GGCUGAGCUCAACACAGCGUGGUAAAGUGGCUGUGGCUAGACUGCC,0.41
3,GGCAGAGCUCUACACAGCGUGGCAUAGUGGCUGUGGCUAGACUGCC,0.37
4,GGCGGAGCUCAACACAGCGUGCCAAAGUGGCUGUGGCUAGACUGCC,0.91
5,GCCAGAGCUCCACACAGCGUGGCAAAGUGGCUGUGGCUAGACUGCC,0.02
6,GGCAGAGUUUAACACAGCGUGGCAAAGUGGCUGUGGCUAGACUGCC,0.08
7,GGCAGAGCUCAGCACAGCGUGGCAAAGUGGUUGUGGCUAGACUGCC,0.05
8,GGCAGAGAUCAACACAGCGUGUCAAAGUGGCUGUGGCUAGACUGCC,0.24
9,GGCAGAGCUCAUCACAGCGUGCCAAAGUGGCUGUGGCUAGACUGCC,0.26
10,GGCAGAGCUCAACAGAGCGUGGCUAAGUGGCUGUGGCUAGACUGCC,0.02
11,GGCAGAGCUCAACUCAGCGUGGCAAAGUGGCUGUGGCGAGACUGCC,0.06
12,GGCAUAGCUCAACACAGCGUGGCAAAGUGGCUAUGGCUAGACUGCC,0.04
13,GGCAGAGCUCAACACAGCGUGGCAAAGUGGCUGAGGCUAGACUGGC,0.15
14,GGCAGUGCUCAACACAGCGUGGCAAAGUGGCUGUGGCUAGACUACC,0.64
15,GGCAGAGCUCAACACAGCGUGGCAAAGUGGCUGUAGCUAGACGGCC,0.03
16,GGCAGAGCUCAACACAGCGUGGUAAAGUGGCUGUGGUUAGACUGCC,0.04
17,AGCAGAGCUCAACACAGCGUGGCAAAGUGGCUGUGGCUAAACUGCC,0.11
18,GCCAGAGCUCAACACAGCGUGGCAAAGUGGCUGUGGCUAGACGGCC,0.04
19,GGCAGAGCUCAACACAGCGUGGCAGAGUGACUGUGGCUAGACUGCC,0.97

row,Variant,self-cleavage
1,GGCAGAGCUCAACACAGCGUGGCACAGUGGCUGUGGCUAAACUGCC,0.1
2,GGCACAGCUAAACACAGCGUGGCAAAGUGGCUGUGGCUAGACUGCC,0.05
3,GGCAGAGCUCCACACAGCGUGGCAAAGUGGCUGUGGAUAGACUGCC,0.02
4,GGCAGAGCUCAGCACAGUGUGGCAAAGUGGCUGUGGCUAGACUGCC,0.04
5,GGCAGAGCUCAACACAGCGUGUCAAAGUGGCUGUGGCUAGACUGCA,1.15
6,GGCAGAGCUCAACCCAGCGUGGCAAAGUGGCUGUGUCUAGACUGCC,0.09
7,GCCAGAGCUCAACACAGCGUGGCAAAGUGGCUGUGGCUAGACUGAC,0.25
8,GGCAGAGCUCGACACAGCGUGGCGAAGUGGCUGUGGCUAGACUGCC,0.02
9,GGCAGAGCACAACACAGGGUGGCAAAGUGGCUGUGGCUAGACUGCC,0.09
10,GGCAGAGCUAAACACAGCGUGGCAAAGUGACUGUGGCUAGACUGCC,0.1
11,GGCAGAGCUCAACACAACGUGCCAAAGUGGCUGUGGCUAGACUGCC,0.17
12,GGCAGAGCCCAACACAGCGUGGCAAAGUGGCUGUGACUAGACUGCC,0.09
13,GGCAGAGCCCAACACAGCGUGACAAAGUGGCUGUGGCUAGACUGCC,0.04
14,GGCAGAGCUCAACACAGCAUGGCAAAGUGGCUGUGGCUAAACUGCC,0.11
15,GGCAGAGCUCAACACAGCGUGGCCAAGUCGCUGUGGCUAGACUGCC,0.54
16,GGCAGAGCUCAACACAGACUGGCAAAGUGGCUGUGGCUAGACUGCC,1.27
17,GGCAGAGCUCAACUCAGCGUGGCAAAGUGGCCGUGGCUAGACUGCC,0.15
18,GGCAGAGCUCAACACAGCGUGGCAAAGUAGCUGUGGCUAGACCGCC,0.08
19,GGCAGAGCUCAACUCAGCGUGGCAAAGUGGCUGUGGCUGGACUGCC,0.06

row,Variant,self-cleavage
1,GGCAGAGCUCAACACAGCGUGGCGAAGUGGCUGUGGCUAGACUGCC,1.1
2,GGCACAGCUCAACACAGCGUGGCAAAGUGGCUGUGGUUAGACUGCC,0.09
3,GGCAGAGCUCAACUCAGCGUGACAAAGUGGCUGUGGCUAGACUGCC,0.35
4,GGCAGAGCUCAACCCAGCGUGGCAAAGUGGCCGUGGCUAGACUGCC,0.08
5,GGCAGAGCUCGACCCAGCGUGGCAAAGUGGCUGUGGCUAGACUGCC,0.02
6,UGCAGAGCUCAACACAGCGUGGCAAAGUGGCUGUGACUAGACUGCC,0.11
7,GGCAGAGCUCAACACAGCGUGAAAAAGUGGCUGUGGCUAGACUGCC,0.42
8,GGCAGAGCUCAACACAGGGUGGCAAAGUGUCUGUGGCUAGACUGCC,0.62
9,GGCAGACCUCAACACAGCGUGGCAAAGUGGCUCUGGCUAGACUGCC,0.08
10,GGCCGAGCUCAACACAGCGUGGCAAAGUGGCUGUGGCUAGCCUGCC,0.12
11,GGCAGAGCUCAACACAGCGUGACUAAGUGGCUGUGGCUAGACUGCC,0.75
12,GGCAGAGCUCAUCACAGCGUGGCAUAGUGGCUGUGGCUAGACUGCC,0.25
13,GGCAGAGCUCAACAGAGCGUGGCAAAGUAGCUGUGGCUAGACUGCC,0.09
14,GCCAGAGCUCAACACAGCGUGGCAAAGUGGCUGUGGCUAGAAUGCC,0.08
15,GCCAGAGCUCAACACAGCGUGGCAAAGUGGCUGUGGCUAGAGUGCC,0.03
16,GGCAGAGCCCAACACAGCGUGGCAAAGUGGGUGUGGCUAGACUGCC,0.02
17,GACAGAGCUCAACACAGCGUGGCAAAAUGGCUGUGGCUAGACUGCC,0.66
18,GGCAGAGCUCAACACCGCGUGGCAAAGUGGCUGUGGCUCGACUGCC,0.02
